B1: Hammerhead Ribozyme (parent)
chain: ACCGGAUGUGCUUUCCGGUCUGAUGAGUCCGUGAGGACGAAACAG

Variants of: B1
Experiment: self-cleavage, relative activity (ratio to wild type); higher = more cleavage; co-transcriptional

| Variant | self-cleavage |
| --- | --- |
| U12A C20U | 0.431 |
| U12A C20G | 0.312 |
| U12A C20A | 0.313 |
| C11G C43G | 0.29 |
| C11G C43U | 0.483 |
| C11G C43A | 0.311 |
| U12A C15A | 0.979 |
| U12A C15U | 0.668 |
| U12A C15G | 0.85 |
| U12A A40G | 0.315 |
| U12A A40U | 0.32 |
| U12A A40C | 0.556 |
| U12A C16G | 0.764 |
| U12A C16A | 1.03 |
| U12A C16U | 1.1 |
| C11A C29A | 0.783 |
| C11A C29G | 0.809 |
| C11A C29U | 1.08 |
| C11G A44U | 0.648 |
| C11G A44C | 0.769 |
| C11G A44G | 1.8 |
| C11G U28C | 1.13 |
| C11G U28A | 0.809 |
| C11G U28G | 0.849 |

| Variant | self-cleavage |
| --- | --- |
| C11U C20G | 0.327 |
| C11U C20A | 0.441 |
| C11U C20U | 0.544 |
| C11A C15A | 0.851 |
| C11A C15U | 1.01 |
| C11A C15G | 1.15 |
| C11A G35C | 0.887 |
| C11A G35U | 0.902 |
| C11A G35A | 0.981 |
| C11G U13G | 1.11 |
| C11G U13A | 1.21 |
| C11G U13C | 1.32 |
| C11G G18U | 0.725 |
| C11G G18A | 0.553 |
| C11G G18C | 0.426 |
| C11G C16G | 0.999 |
| C11G C16U | 1.23 |
| C11G C16A | 0.865 |
| C11G A26C | 0.725 |
| C11G A26G | 0.393 |
| C11G A26U | 1.05 |
| C11U A34C | 0.584 |
| C11U A34G | 0.83 |
| C11U A34U | 0.724 |

| Variant | self-cleavage |
| --- | --- |
| C11G A41C | 0.366 |
| C11G A41G | 0.413 |
| C11G A41U | 0.382 |
| C11G C38G | 0.692 |
| C11G C38U | 1.09 |
| C11G C38A | 0.718 |
| C11G U24C | 1.07 |
| C11G U24G | 1.3 |
| C11G U24A | 0.829 |
| C11A G17C | 0.506 |
| C11A G17U | 1 |
| C11A G17A | 0.717 |
| U12A A41U | 0.388 |
| U12A A41C | 0.325 |
| U12A A41G | 0.32 |
| C11G G39A | 0.253 |
| C11G G39C | 0.541 |
| C11G G39U | 0.301 |
| C11G G27U | 0.527 |
| C11G G27A | 0.839 |
| C11G G27C | 0.938 |
| C11U G25U | 0.318 |
| C11U G25A | 0.39 |
| C11U G25C | 0.248 |

| Variant | self-cleavage |
| --- | --- |
| C11U A42U | 0.377 |
| C11U A42G | 0.304 |
| C11U A42C | 0.388 |
| C11U G33U | 1.04 |
| C11U G33C | 0.659 |
| C11U G33A | 0.95 |
| C11G G17A | 0.511 |
| C11G G17C | 0.273 |
| C11G G17U | 0.589 |
| U12A A34G | 0.904 |
| U12A A34C | 1.08 |
| U12A A34U | 1 |
| C11A U24A | 1.14 |
| C11A U24C | 1.13 |
| C11A U24G | 1.34 |
| C11A C30U | 0.87 |
| C11A C30A | 1.1 |
| C11A C30G | 0.955 |
| C11A U19C | 0.603 |
| C11A U19A | 0.358 |
| C11A U19G | 0.392 |
| C11A G18C | 0.586 |
| C11A G18U | 1.04 |
| C11A G18A | 0.839 |

| Variant | self-cleavage |
| --- | --- |
| C11G U12A | 1.1 |
| C11G U12G | 1.17 |
| C11G U12C | 1.07 |
| C11A G33U | 1.21 |
| C11A G33C | 1.27 |
| C11A G33A | 1.22 |
| C11A G39A | 0.303 |
| C11A G39U | 0.29 |
| C11A G39C | 0.438 |
| C11A U32G | 1.01 |
| C11A U32C | 1.06 |
| C11A U32A | 1.4 |
| C11G C30A | 1.26 |
| C11G C30U | 1.28 |
| C11G C30G | 1.22 |
| C11G G25C | 0.326 |
| C11G G25A | 0.288 |
| C11G G25U | 0.282 |
| C11U G45C | 0.44 |
| C11U G45A | 0.515 |
| C11U G45U | 0.497 |
| U12A C29U | 0.881 |
| U12A C29G | 0.721 |
| U12A C29A | 0.634 |

| Variant | self-cleavage |
| --- | --- |
| C11U U24G | 1.02 |
| C11U U24C | 1.08 |
| C11U U24A | 1.2 |
| U12A | 1.05 |
| C11A C20A | 0.452 |
| C11A C20U | 0.681 |
| C11A C20G | 0.319 |
| C11A C16U | 0.985 |
| C11A C16G | 1.1 |
| C11A C16A | 1.41 |
| C11U C30A | 0.765 |
| C11U C30U | 0.736 |
| C11U C30G | 0.714 |
| C11A G27C | 0.724 |
| C11A G27A | 0.928 |
| C11A G27U | 0.684 |
| C11U A23G | 0.39 |
| C11U A23C | 0.277 |
| C11U A23U | 0.338 |
| U12A A44G | 1.66 |
| U12A A44U | 0.61 |
| U12A A44C | 0.481 |
| C11G G33A | 1.11 |
| C11G G33U | 1.53 |

| Variant | self-cleavage |
| --- | --- |
| C11G G33C | 1 |
| C11U A37U | 0.665 |
| C11U A37C | 0.987 |
| C11U A37G | 1.12 |
| C11G C15G | 0.88 |
| C11G C15U | 0.986 |
| C11G C15A | 0.824 |
| C11G A37G | 1.02 |
| C11G A37U | 0.897 |
| C11G A37C | 1.11 |
| C11U C15A | 1.02 |
| C11U C15G | 1.04 |
| C11U C15U | 1.18 |
| C11G C29U | 1.28 |
| C11G C29G | 0.82 |
| C11G C29A | 0.786 |
| C11G U19G | 0.42 |
| C11G U19C | 0.532 |
| C11G U19A | 0.296 |
| C11U U14G | 0.765 |
| C11U U14C | 0.771 |
| C11U U14A | 0.998 |
| C11A C43A | 0.357 |

Reference: the RNAGym collection of RNA variant scans (doi:10.7554/elife.80360)
